Laboratory results reported in US12404345B2, “Humanized antibodies against iRHOM2” (SCIRHOM GMBH, priority 2021, dated 2025).
Changes are numbered by the printed parent chain.

T1: rhesus monkey iRhom2 (Macaca mulatta, UniProt F6Y4X6)
T1 construct: pMSCV-rhesus-iR2-FL-WT-T7 encoding rhesus monkey iRhom2 full length wild type; expressed in transfected cells; host or cells: immortalized iRhom1/2-/- DKO mouse embryonic fibroblasts, pMSCV retroviral infection
T1 sequence (F6Y4X6 1-827): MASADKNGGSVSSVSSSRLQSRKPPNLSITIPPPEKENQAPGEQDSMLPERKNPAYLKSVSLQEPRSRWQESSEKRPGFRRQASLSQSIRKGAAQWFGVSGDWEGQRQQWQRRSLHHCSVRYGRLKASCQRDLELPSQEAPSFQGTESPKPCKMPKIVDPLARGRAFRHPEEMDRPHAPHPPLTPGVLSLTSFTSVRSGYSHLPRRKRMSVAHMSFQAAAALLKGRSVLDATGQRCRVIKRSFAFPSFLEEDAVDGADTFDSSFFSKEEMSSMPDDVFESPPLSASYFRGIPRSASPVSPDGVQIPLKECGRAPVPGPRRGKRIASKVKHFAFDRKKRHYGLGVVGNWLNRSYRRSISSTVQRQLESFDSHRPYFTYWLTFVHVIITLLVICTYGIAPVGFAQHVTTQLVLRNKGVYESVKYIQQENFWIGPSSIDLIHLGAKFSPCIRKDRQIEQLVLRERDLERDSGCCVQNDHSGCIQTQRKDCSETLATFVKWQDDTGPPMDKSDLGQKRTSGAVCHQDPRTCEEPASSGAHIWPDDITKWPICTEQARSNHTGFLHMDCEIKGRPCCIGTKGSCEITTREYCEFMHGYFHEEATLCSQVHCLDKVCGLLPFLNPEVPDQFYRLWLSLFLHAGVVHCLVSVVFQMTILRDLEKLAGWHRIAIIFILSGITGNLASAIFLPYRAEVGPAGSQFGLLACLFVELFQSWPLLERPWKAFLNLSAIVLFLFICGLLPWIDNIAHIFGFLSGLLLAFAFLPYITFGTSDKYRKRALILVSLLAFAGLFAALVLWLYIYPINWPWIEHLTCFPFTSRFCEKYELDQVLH

B1: 16-B-03: humanized antibody binding human iRhom2; HCVD SEQ ID NO 1, LCVD SEQ ID NO 5 (antibody, V domains shown)
VH: QVTLRESGPALVKPTQTLTLTCTFSGFSLSTFALGVGWIRQPPGKALEWLAHIWWDDDKYYNPALKSRLTISKDTSKNQVVLTITNMDPVDTATYYCARITTYYYGMDYWGQGTLVTVSS
VL: EIVMTQSPDFQSVTPKEKVTITCRASQSIGNHLHWYQQKPDASPKLLIKYASQSISGVPSRFSGSGSGTDFTLTINSLEAEDAATYFCQQSYQWPLTFGQGTKLEIK
modifications: antibody sequences
B2: 16-B-05: humanized antibody binding human iRhom2; HCVD SEQ ID NO 9, LCVD SEQ ID NO 13 (antibody, V domains shown)
VH: B1 VH with D57E
VL: B1 VL with Q93N
modifications: antibody sequences
B3: 16-B-07: humanized antibody binding human iRhom2; HCVD SEQ ID NO 17, LCVD SEQ ID NO 21 (antibody, V domains shown)
VH: B1 VH with D57E
VL: B1 VL
modifications: antibody sequences
B4: 23-B-04: humanized antibody binding human iRhom2; HCVD SEQ ID NO 25, LCVD SEQ ID NO 29 (antibody, V domains shown)
VH: QVTLRESGPALVKPTQTLTLTCTFSGFSLSTFGMGVGWIRQPPGKALEWLAHIWWDDEKYYNSALKSRLTISKDTSKNQVVLTITNMDPVDTATYYCARISNYGSNYWYFNVWGQGTLVTVSS
VL: AIQLTQSPSSLSASVGDRVTITCRASSSVSYMYWYQQKPGKAPKVLIYDTSNLASGVPSRFSGSGSGTDYTLTISSLQPEDFATYYCQQWNAYPLTFGQGTKLEIK
modifications: antibody sequences
B5: 42-B-02: humanized antibody binding human iRhom2; HCVD SEQ ID NO 33, LCVD SEQ ID NO 37 (antibody, V domains shown)
VH: B4 VH with M34R, S101Q, N111D
VL: B4 VL with S28R, V29I, Y33F, A92S
modifications: antibody sequences
B6: 42-B-04: humanized antibody binding human iRhom2; HCVD SEQ ID NO 41, LCVD SEQ ID NO 45 (antibody, V domains shown)
VH: B4 VH with M34R, S101Q, N111D
VL: B4 VL with S28R, V29I, Y33F
modifications: antibody sequences

molecular target: T1, rhesus monkey iRhom2; experiment: FACS cross-reactivity on MEF-DKO-Rhesus-iR2-FL-WT-T7 cells; type: binding; conditions: antibody at 3 μg/ml
Source text: Next, iRhom1/2−/− DKO MEFs stably expressing a tagged form of rhesus monkey, cynomolgus monkey, dog or rabbit iRhom2 were generated in order to determine cross-reactivity of the antibodies of the invention with the respective orthologue of iRhom2. iRhom1/2−/− DKO MEFs stably expressing a tagged form of rhesus monkey, cynomolgus monkey, dog or rabbit iRhom1 were generated to confirm specificity for iRhom2 versus iRhom1 of these species.
In brief, on day 1, Phoenix-ECO cells (American Type Culture Collection, USA) were seeded on 6-well tissue culture plates (Greiner, Germany) in standard growth medium at 8×10^5 cells per well and kept overnight at 37° C., 5% CO2. On day 2, the medium was replaced by fresh medium supplemented with chloroquine (Sigma-Aldrich, USA) at a final concentration of 25 μM. Applying the calcium phosphate method, cells were transfected with 2 μg/ml of pMSCV (Clontech, USA) empty vector, pMSCV-rhesus-iR2-FL-WT-T7 encoding rhesus monkey iRhom2 full length wild type C-terminally tagged with 3 consecutive copies of the T7 epitope, pMSCV-cyno-iR2-FL-WT-T7 encoding cynomolgus monkey iRhom2 full length wild type C-terminally tagged with 3 consecutive copies of the T7 epitope, pMSCV-dog-iR2-FL-WT-T7 encoding dog iRhom2 full length wild type C-terminally tagged with 3 consecutive copies of the T7 epitope or pMSCV-rabbit-iR2-FL-WT-T7 encoding rabbit iRhom2 full length wild type C-terminally tagged with 3 consecutive copies of the T7 epitope, respectively, and were kept at 37° C., 5% CO2. After 7 hours, the transfections were stopped by replacing cell supernatants with standard growth medium lacking chloroquine, and cells were incubated at 37° C., 5% CO2 to allow virus production overnight. In parallel, immortalized iRhom1/2−/− DKO MEFs as target cells for retroviral infection were seeded on 6-well tissue culture plates (Greiner, Germany) in standard growth medium at 1×10^5 cells per well and were also kept overnight at 37° C., 5% CO2. On day 3, the supernatants of Phoenix-ECO cells releasing pMSCV, pMSCV-rhesus-iR2-FL-WT-T7, pMSCV-cyno-iR2-FL-WT-T7, pMSCV-dog-iR2-FL-WT-T7 or pMSCV-rabbit-iR2-FL-WT-T7 ecotrophic virus, respectively were collected, filtered with 0.45 μm CA filters, and supplemented with 4 μg/ml of polybrene (Sigma-Aldrich, USA). Upon removal of medium from the immortalized iRhom1/2−/− DKO MEFs, the virus containing supernatants were added to the target cells for 4 hours at 37° C., 5% CO2 for first infection. Simultaneously, Phoenix-ECO cells were re-incubated with fresh medium, which, after another 4 hours, was filtered and used for the second infection of the respective target cell populations, again in the presence of 4 μg/ml of polybrene. Likewise, a third, but overnight infection cycle was performed. On day 4, virus containing cell supernatants were replaced by fresh standard growth medium. From day 5 onwards, cells were grown in the presence of 2 mg/ml of geneticin (G418, Thermo Fisher Scientific, USA) for the selection of immortalized MEF-DKO-EV control cells stably infected with pMSCV empty vector, pMSCV-rhesus-iR2-FL-WT-T7 cells stably expressing rhesus monkey iRhom2 full length wild type C-terminally tagged with 3 consecutive copies of the T7 epitope, pMSCV-cyno-iR2-FL-WT-T7 cells stably expressing cynomolgus monkey iRhom2 full length wild type C-terminally tagged with 3 consecutive copies of the T7 epitope, pMSCV-dog-iR2-FL-WT-T7 cells stably expressing dog iRhom2 full length wild type C-terminally tagged with 3 consecutive copies of the T7 epitope or pMSCV-rabbit-iR2-FL-WT-T7 cells stably expressing rabbit iRhom2 full length wild type C-terminally tagged with 3 consecutive copies of the T7 epitope, respectively. Upon propagation, cells were stocked for future usage. In parallel, iRhom1/2−/− DKO MEFs stably expressing a tagged form of rhesus monkey, cynomolgus monkey, dog or rabbit iRhom1 were generated in an analogous manner. […]

binding to rhesus monkey iRhom2 on MEF-DKO-Rhesus-iR2-FL-WT-T7 cells | Molecule
Strong binding | B1
recognize rhesus monkey iRhom2 | B2
recognize rhesus monkey iRhom2 | B3
recognize rhesus monkey iRhom2 | B4
recognize rhesus monkey iRhom2 | B5
recognize rhesus monkey iRhom2 | B6
